From patent US20240309055A1
Substitutions are numbered along the chain they refer to.

Legend:
[1] = target: IgG affixed to the BLI probe; experiment: BLI kinetic analysis, 1:1 fit, protein M 15.6-250 nM, IgG on Anti-Mouse IgG Fc Capture biosensor (mouse IgG per paragraph 316), 37 C
[2] = target: IgG affixed to the BLI probe; experiment: BLI kinetic analysis, 1:1 fit, protein M 15.6-250 nM, IgG on Anti-Mouse IgG Fc Capture biosensor (mouse IgG per paragraph 316), 37 C; same row: KD error 0.2 nM, X2 2.5, R2 1.00
[3] = target: AAV2 capsid (AAV2-Luciferase vector) (adeno-associated virus 2) (UniProt P03135); experiment: cell-based or functional assay
[4] = target: AAV2 capsid (AAV2-Luciferase vector) (adeno-associated virus 2) (UniProt P03135); experiment: cell-based or functional assay; remark: listed apart in the source
[5] = target: human intravenous immunoglobulin gamma (IVIG), 10% Human IVIG (Gamunex) (human); experiment: cell-based or functional assay
[6] = target: IgG affixed to the BLI probe; experiment: BLI kinetic analysis, 1:1 fit, protein M 15.6-250 nM, IgG on Anti-Mouse IgG Fc Capture biosensor (mouse IgG per paragraph 316), 37 C; same row: KD error 0.2 nM, X2 1.9, R2 1.00
[7] = target: IgG affixed to the BLI probe; experiment: BLI kinetic analysis, 1:1 fit, protein M 15.6-250 nM, IgG on Anti-Mouse IgG Fc Capture biosensor (mouse IgG per paragraph 316), 37 C; same row: KD error 0.5 nM, X2 2.4, R2 0.99
[8] = target: IgG affixed to the BLI probe; experiment: BLI at 37° C, IgG Fc capture biosensor (AHC or AMC, not told which), 1:1 fit, max conc. 50 nM, 6 points
[9] = target: IgG affixed to the BLI probe; experiment: BLI at 37° C, IgG Fc capture biosensor (AHC or AMC, not told which), 1:1 fit, max conc. 250 nM, 5 dilutions

UniProt P03135, sequence (P03135 whole entry, the tested form may be a part): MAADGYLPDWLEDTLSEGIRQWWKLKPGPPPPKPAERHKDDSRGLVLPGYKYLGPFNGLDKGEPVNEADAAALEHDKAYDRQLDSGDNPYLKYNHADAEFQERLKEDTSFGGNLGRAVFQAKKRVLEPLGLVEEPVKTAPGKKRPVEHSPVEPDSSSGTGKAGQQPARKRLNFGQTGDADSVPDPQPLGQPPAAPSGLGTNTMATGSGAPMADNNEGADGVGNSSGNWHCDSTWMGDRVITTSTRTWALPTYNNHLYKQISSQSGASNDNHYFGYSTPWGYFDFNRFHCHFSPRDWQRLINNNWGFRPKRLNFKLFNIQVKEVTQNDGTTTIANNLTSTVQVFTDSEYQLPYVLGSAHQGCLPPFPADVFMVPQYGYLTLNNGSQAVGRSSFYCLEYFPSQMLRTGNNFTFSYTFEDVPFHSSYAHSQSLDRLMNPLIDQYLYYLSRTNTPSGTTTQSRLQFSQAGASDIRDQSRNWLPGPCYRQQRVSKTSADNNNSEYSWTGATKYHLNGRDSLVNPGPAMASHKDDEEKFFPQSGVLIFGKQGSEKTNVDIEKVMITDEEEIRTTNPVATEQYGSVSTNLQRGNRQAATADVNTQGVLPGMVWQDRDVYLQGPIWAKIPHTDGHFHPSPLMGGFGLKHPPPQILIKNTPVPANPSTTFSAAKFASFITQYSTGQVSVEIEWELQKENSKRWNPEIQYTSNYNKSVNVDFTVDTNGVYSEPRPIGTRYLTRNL

MG WT
koff [1]: 0.00033 s⁻¹
kon [1]: 28000 M⁻¹ s⁻¹
Kd [2]: 11.9 nM

protein M without cleavage of the His tag (from UniProt P47523 37-556)
molar ratio of protein M to AAV2 particle at which enhancement begins to saturate (protein M molecules per AAV2 particle) [3]: 700000
molar ratio of protein M to AAV2 particle below which enhancement of the luciferase signal is abolished (protein M molecules per AAV2 particle) [3]: < 40000

B1: protein M (SEQ ID NO:2), His-tag removed by thrombin cleavage (protein)
chain: HHHHHHSSGLVPRGSHMTNLVNQSGYALVASGRSGNLGFKLFSTQSPSAEVKLKSLSLNDGSYQSEIDLSGGANFREKFRNFANELSEAITNSPKGLDRPVPKTEISGLIKTGDNFITPSFKAGYYDHVASDGSLLSYYQSTEYFNNRVLMPILQTTNGTLMANNRGYDDVFRQVPSFSGWSNTKATTVSTSNNLTYDKWTYFAAKGSPLYDSYPNHFFEDVKTLAIDAKDISALKTTIDSEKPTYLIIRGLSGNGSQLNELQLPESVKKVSLYGDYTGVNVAKQIFANVVELEFYSTSKANSFGFNPLVLGSKTNVIYDLFASKPFTHIDLTQVTLQNSDNSAIDANKLKQAVGDIYNYRRFERQFQGYFAGGYIDKYLVKNVNTNKDSDDDLVYRSLKELNLHLEEAYREGDNTYYRVNENYYPGASIYENERASRDSEFQNEILKRAEQNGVTFDENIKRITASGKYSVQFQKLENDTDSSLERMTKAVEGLVTVIGEEKFETVDITGVSSDTNEVKSLAKELKTNALGVKLKL
AAV2-Luciferase signal, % of PBS control, 33 µg protein M incubated alone with AAV2 (% of PBS control) [4]: 216
AAV2-Luciferase signal, % of PBS control, 75 µg protein M incubated alone with AAV2 (% of PBS control) [4]: 208
AAV2-Luciferase signal, % of no-IVIG control, at 8:1 molar ratio (33 µg protein M, 12.5 µg IVIG) (% of no-IVIG control) [5]: 194
AAV2-Luciferase signal, % of no-IVIG control, at 20:1 molar ratio (75 µg protein M, 12.5 µg IVIG) (% of no-IVIG control) [5]: 256
AAV2-Luciferase signal, % of no-IVIG control, at protein M:IgG molar ratio 0.5:1 (% of no-IVIG control) [5]: 40
AAV2-Luciferase signal, % of no-IVIG control, at protein M:IgG molar ratio 1:1 (% of no-IVIG control) [5]: 52
AAV2-Luciferase signal, % of no-IVIG control, at protein M:IgG molar ratios greater than 2:1 (12.5 µg IVIG) (% of no-IVIG control) [5]: 108 to 193
molar ratio of protein M to IgG sufficient to prevent AAV2 neutralization (protein M molecules per IgG molecule) [5]: 2

B2: MG 40 (protein, part only)
chain: SLSLNDGSYQSEIDLSGGANFREKFRNFANELSEAITNSPKGLDRPVPKTEISGLIKTGDNFITPSFKAGYYDHVASDGSLLSYYQSTEYFNNRVLMPILQTTNGTLMANNRGYDDVFRQVPSFSGWSNTKATTVSTSNNLTYDKWTYFAAKGSPLYDSYPNHFFEDVKTLAIDAKDISALKTTIDSEKPTYLIIRGLSGNGSQLNELQLPESVKKVSLYGDYTGVNVAKQIFANVVELEFYSTSKANSFGFNPLVLGSKTNVINDLFASKPFTHIDLTQVPLQNSDNSAIDANKLKQAVGDIYNYRRFERQFQGYFAGGYIDKYLVKNVNTNKDSDDDLVYRSLKELNLHLEEAYREGDNTYYRVNENYYPGASIYENERASRDSEFQNEILKRAEQNGVTFDEN
modifications: N-terminal His-tag and thrombin site
koff [1]: 0.00031 s⁻¹
kon [1]: 31000 M⁻¹ s⁻¹
Kd [6]: 10.1 nM

B3: MG 31 (protein, part only)
chain: B2 chain with P282T, V300I, V327I, N329I, K334P, S336V, L340I, T362I
modifications: N-terminal His-tag and thrombin site
koff [1]: 0.00047 s⁻¹
kon [1]: 30000 M⁻¹ s⁻¹
Kd [7]: 15.5 nM

B4: MG WT* (truncated M. genitalium protein M, amino acids 74-479, with Y338) (protein)
chain: B2 chain with N265Y, P282T
Kd [8]: 0.8 nM
koff [8]: 6.73e-05 s⁻¹
kon [8]: 83800 M⁻¹ s⁻¹

B5: MG66* (modified M. genitalium protein M MG66 with Y338) (protein)
chain: B2 chain with S77E, S123R, S125P, A132P, S159Q, F164T, N201D, N265Y, A269V
Kd [8]: 0.69 nM
koff [8]: 5.55e-05 s⁻¹
kon [8]: 80100 M⁻¹ s⁻¹

B6: MG29 (modified M. genitalium protein M MG29, N338) (protein, not shown: small tags and cut ends)
chain: B2 chain with S77E, S123R, S125P, S159Q, F164T, A269V, P282T
Kd [9]: 7.9 nM
koff [9]: 0.00034 s⁻¹
kon [9]: 43000 M⁻¹ s⁻¹
